In patent CN114591430A one finds OD450 data, which are given here for 1 molecule.

For experiment [1], the target named is 牛血清白蛋白(BSA) (bovine) (UniProt P02769). Kind of experiment: ELISA, BSA coated at 1 ug/ml, biotin-labelled antibody at dilution 1K, HRP-avidin. For orientation: An ELISA detects its analyte on a solid surface through an enzyme-linked reagent.
Experiment [2] shares this target. Kind of experiment: indirect ELISA, BSA coated at 1 ug/ml, purified antibody at dilution 1K, HRP goat anti-mouse IgG.
Experiment [3] shares this target. Kind of experiment: indirect ELISA, BSA coated at 1 ug/ml, purified antibody at dilution 4K, HRP goat anti-mouse IgG.
The target is the same in experiment [4]. Kind of experiment: ELISA, BSA coated at 1 ug/ml, biotin-labelled antibody at dilution 8K, HRP-avidin.
Experiment [5] has the same target. Kind of experiment: indirect ELISA, BSA coated at 1 ug/ml, purified antibody at dilution 8K, HRP goat anti-mouse IgG.
For experiment [6] the target is unchanged. The experiment can be described thus: indirect ELISA, BSA coated at 1 ug/ml, purified antibody at dilution 1024K, HRP goat anti-mouse IgG.
Experiment [7] shares this target. The experiment can be described thus: indirect ELISA, BSA coated at 1 ug/ml, purified antibody at dilution 512K, HRP goat anti-mouse IgG.
Experiment [8] has the same target. The experiment can be described thus: ELISA, BSA coated at 1 ug/ml, biotin-labelled antibody at dilution 512K, HRP-avidin.
Experiment [9] shares this target. Kind of experiment: indirect ELISA, BSA coated at 1 ug/ml, purified antibody at dilution 128K, HRP goat anti-mouse IgG.
Experiment [10] shares this target. The experiment can be described thus: ELISA, BSA coated at 1 ug/ml, biotin-labelled antibody at dilution 16K, HRP-avidin.
Experiment [11] has the same target. The experiment can be described thus: ELISA, BSA coated at 1 ug/ml, biotin-labelled antibody at dilution 2K, HRP-avidin.
For experiment [12] the target is unchanged. The experiment can be described thus: ELISA, BSA coated at 1 ug/ml, biotin-labelled antibody at dilution 64K, HRP-avidin.
The target is the same in experiment [13]. Kind of experiment: ELISA, BSA coated at 1 ug/ml, biotin-labelled antibody at dilution 1024K, HRP-avidin.
The target is the same in experiment [14]. Kind of experiment: indirect ELISA, BSA coated at 1 ug/ml, purified antibody at dilution 256K, HRP goat anti-mouse IgG.
Experiment [15] has the same target. The experiment can be described thus: ELISA, BSA coated at 1 ug/ml, biotin-labelled antibody at dilution 128K, HRP-avidin.
Experiment [16] shares this target. Kind of experiment: ELISA, BSA coated at 1 ug/ml, biotin-labelled antibody at dilution 4K, HRP-avidin.
For experiment [17] the target is unchanged. The experiment can be described thus: indirect ELISA, BSA coated at 1 ug/ml, purified antibody at dilution 16K, HRP goat anti-mouse IgG.
Experiment [18] has the same target. The experiment can be described thus: indirect ELISA, BSA coated at 1 ug/ml, purified antibody at dilution 64K, HRP goat anti-mouse IgG.
Experiment [19] shares this target. The experiment can be described thus: ELISA, BSA coated at 1 ug/ml, biotin-labelled antibody at dilution 256K, HRP-avidin.
Experiment [20] has the same target. Kind of experiment: indirect ELISA, BSA coated at 1 ug/ml, purified antibody at dilution 2K, HRP goat anti-mouse IgG.
The target is the same in experiment [21]. The experiment can be described thus: indirect ELISA, BSA coated at 1 ug/ml, purified antibody at dilution 32K, HRP goat anti-mouse IgG.
The target is the same in experiment [22]. The experiment can be described thus: ELISA, BSA coated at 1 ug/ml, biotin-labelled antibody at dilution 32K, HRP-avidin.

Chain of UniProt P02769 (P02769 25-607): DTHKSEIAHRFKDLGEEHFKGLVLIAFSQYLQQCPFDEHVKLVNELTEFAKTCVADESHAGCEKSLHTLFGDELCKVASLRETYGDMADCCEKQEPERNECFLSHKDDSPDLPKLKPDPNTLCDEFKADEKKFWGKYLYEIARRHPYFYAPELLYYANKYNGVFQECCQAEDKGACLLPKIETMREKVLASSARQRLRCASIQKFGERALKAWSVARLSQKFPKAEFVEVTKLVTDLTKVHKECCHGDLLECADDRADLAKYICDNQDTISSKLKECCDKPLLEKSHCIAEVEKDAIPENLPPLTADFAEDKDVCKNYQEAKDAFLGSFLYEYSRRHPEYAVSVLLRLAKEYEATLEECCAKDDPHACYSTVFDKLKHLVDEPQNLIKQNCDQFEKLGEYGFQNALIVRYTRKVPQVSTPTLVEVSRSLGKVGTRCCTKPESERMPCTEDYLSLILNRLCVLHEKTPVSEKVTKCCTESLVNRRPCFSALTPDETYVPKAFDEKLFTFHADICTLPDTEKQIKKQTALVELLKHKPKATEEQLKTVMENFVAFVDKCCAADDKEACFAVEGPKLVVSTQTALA

B1: BSA抗体B6 (antibody, V domains shown)
VH: VQLQESGAELVKPGASVKLSCKASGYTFTGQYVSWVKQRPGQGLEWIGEDNKSSRQGTEYSKATLTVDKSSSTAYMQLSSLTSEDSAVYYCTRDEVRSETYWGQGTTVTVSS
VL: DIVLTQSPATLSVTPGDSVSLSCRTEDKSLSYHWFQQKSHESPRLLIKDAYQKISGIPSRFNGCGSGTDFTLNINSVETEDFGMFFCQTSGWTHFGSGTKLEIKR
With B1, the OD450 came to 2.39 in experiment [1]; 2.21 in experiment [2]; 0.981 in experiment [3]; 1.66 in experiment [4]; 0.846 in experiment [5]; 0.161 in [6]. The OD450 in [7] came out at 0.184; in [8], 0.332; in experiment [9] it was 0.371; in experiment [10], 1.42; in experiment [11] it was 2.11; in experiment [12] it was 0.885. In addition, the OD450 in experiment [13] was found to be 0.15; in experiment [14], 0.269; in [15], 0.677; in [16] it was 1.9; in experiment [17] it was 0.648; in experiment [18], 0.454. In addition, the OD450 in experiment [19] is 0.431; in experiment [20] it was 1.64; in experiment [21], 0.538; in experiment [22] it was 1.13.
